{"source": "paper PMC7919418", "about": "(Genes & Development, 2021)", "experiment": "SEC-MALS molecular weight / oligomeric state", "type": "physicochemical", "data": [{"substance": "dual-TQT/V Panx peptides: Panx peptide residues 455–480 with both Ctp binding sites (TLYKNAATQTERRTATRDAGTQVRLE)", "values": [{"measurement": "oligomeric state / stoichiometry", "value": "two Ctp homodimers with two dual-TQT/V Panx peptides"}]}]}
